These results are taken from patent US20230257435A1, “Wound Healing Composition and Uses Thereof” (AGENCY FOR SCIENCE, TECHNOLOGY AND RESEARCH, priority 2020, published 2023).

For one data set, the system named is keratinocytes. As to the kind of experiment: BrdU incorporation after wound scratch (leader/follower cells). It is filed as cell-based. To be noted: Agrin knockdown; 10 μg/ml sAgrin 18 h; 4 h post-scratch. On the procedure: FIG. 6 Agrin impacts keratinocyte proliferation following wound injury. (a) Control, Agrin depleted indicated keratinocytes and those rescued with 10 μg/ml sAgrin for 18 h were labelled with 20 μM BrdU for 12 hours, before proceeding with wound-scratch assays. The cells were fixed at 4 hours post-scratching and stained with an Anti-BrdU and K17 antibodies. Nuclei were counterstained with DAPI. Representative confocal images at the wound edge (leader) and at-least 200 μm away from the wound margin (followers) are shown. The relative percentage of proliferating cells are shown for each condition graphically (n=5-6 images analyzed for each conditions from three replicates, Students ‘t’ test, **p=0.006, *p-0.003, p=0.005, ***p=0.0001, respectively). Scale bar: 10 μm. (b-c) Schematic showing the states of proliferation at the migrating wound margins. Immunohistological sections stained for Ki67 in control and Agrin depleted wound edges and beds at day 7 post-wounding. Filled arrows denote the base of epidermis (Ep), while arrows represent the wound margin. Asterisk (*) denotes the loss of Ki67 proliferation at the wound margins. Scale bar: 100 μm. The percentage of proliferating cells was quantified using Image J (n=4 sections analyzed from two individual mice, Students ‘t’ tests, **p=0.001).
A general note: Dividing cells build labelled thymidine or BrdU into new DNA.

The subject of a further data set is mouse skin explants. As to the kind of experiment: Mouse skin explant assay (keratinocyte outgrowth). The data set is classed as cell-based. How it is done:
Three days old ICR strain mouse pups were sacrificed and the hind skin on either side of the midline in the shoulder region was washed in 70% ethanol and excised using scalpel. The excised skin was washed in 70% ethanol and placed (dermis side down) on the pre-made gel substrates of defined stiffness, either in the absence or presence of 20 μg/ml sAgrin. The explants were allowed to adhere for 2 h before adding the keratinocyte culture medium (DMEM) containing 300 μM Ca^2+ as described previously^31. The keratinocyte outgrowth and the skin tissues regularly imaged under an Axiovert-200 inverted microscope and were subsequently fixed in 4% paraformaldehyde and immunostained for Keratin 17 antibody.
Tissue culture plates were coated with Col-T-gel (Fischer Scientific) of stiffness ranging from 0.8 KPa (soft) to 30 KPa (stiff) as per manufacturer recommendations and allowed to solidify for 40 min at 37° C. inside tissue culture incubators. Some experiments were performed with cells seeded on the poly-hydrogel plates of defined stiffness: 0.2 kPa and 16 kPa soft and hard polyhydrogels, respectively (CytoSoft, Advanced Biomatrix, Inc.,). The determination of stiffness of silicone substrates were done by the manufacturer as per previously published protocols. For certain experiments, indicated amounts of sAgrin was incorporated into the 0.8 KPa collagen gels before gelation process. Upon gelation, trypsinized cells or excised mouse skin explants were plated onto the gels of different stiffness either alone or containing sAgrin. The cells/tissues were incubated under standard culture condition with 500 μl recommended culture medium for the indicated days. The crossbow shaped micropatterns with fibronectin coated islands were generated by microlithography on a 19.5×19.5 mm coverslide from Cytoo, Inc., France. The micropatterns had surface areas of 800μ^2 or 1600μ^2, respectively. Fifty thousand cells after initial siRNA treatment was placed on the micropatterns for 4-6 h before processing them for immunofluorescence. […]

In data set [1] the test system is keratinocytes and dermal fibroblasts. As to the kind of experiment: In vitro scratch wound-healing assay. The data set is classed as cell-based, human and mouse. On the procedure:
A confluent monolayer of control and Agrin depleted cells in a 6-well plate was subjected to a unidirectional scratch using a 20 μl pipette tip. This was followed by washing with 1×PBS at room temperature and incubation in complete culture media at 37° C. and 5% CO2 with or without sAgrin used as indicated. Phase contrast images of the wound area were taken periodically at the indicated time-points. For some wound-healing migration assays, keratinocytes were cultured on either soft or stiff substrates within a stencil barrier (Nalge Nunc., Inc) for 18 h. Upon removal of the barrier, the cells were allowed to migrate and imaged using an Axiovert 200 inverted microscope at indicated time-points.

The next data set deals with MMP12. Briefly: MMP12 activity assay (gelatin and casein zymography). It is filed as cell-based, human. To be noted: Agrin silenced keratinocytes, increasing dose of sAgrin 24 h. On the procedure:
MMP12 activity were monitored via Gelatin and Casein zymography as per previously published protocols. Briefly, control or Agrin depleted HaCaT cells were grown till 80-90% confluency in media without FBS. Supernatants collected from each culture dish were spun down at 10,000 rpm for 5 min and concentrated using Amicon ultra columns. Twenty microliter of medium was mixed with 2×SDS loading buffer and loaded on 10% gelatin or casein gel. The gels were washed with incubation buffer and subsequently stained with Coomassie Brilliant Blue for 1 h. The gels were de-stained for 30 min before imaging using a Chemidoc imager.

B1: sAgrin: C-terminus recombinant Agrin fragment containing 8 amino acid 'Z8' insert and LG3 domain (SEQ ID NO: 7), His-tagged, expressed in E. coli (protein)
chain: DTLAFDGRTFVEYLNAVTESELANEIPVEKALQSNHFELSLRTEATQGLVLWSGKATERADYVALAIVDGHLQLSYNLGSQPVVLRSTVPVNTNRWLRVVAHREQREGSLQVGNEAPVTGSSPLGATQLDTDGALWLGGLPELPVGPALPKAYGTGFVGCLRDVVVGRHPLHLLEDAVTKPELRPCPTP
modifications: His tag
Turning to B1, the “proliferation of follower cells away from the wound margin” value in the data set on keratinocytes is reported as “rescued”. Also, the “keratinocyte outgrowth on soft substrates” value with mouse skin explants (soft ECM, 20 μg/ml sAgrin, day 5) is recorded as “significantly enhanced keratinocyte outgrowth”. Further, in the data set on mouse skin explants (stiff ECM with 20 μg/ml sAgrin), the “keratinocyte outgrowth of Agrin depleted explants on stiff substrates” value is listed as “exhibited higher keratinocyte outgrowth”. Besides, the “scratch wound-responsive migration velocities (rescue of Agrin knockdown)” value in data set [1] (Agrin knockdown fibroblasts and keratinocytes, 10 μg/ml sAgrin 18 h) is “in part, rescued”. The “migration of MMP 1 and 10 knockdown keratinocytes” value in data set [1] (HaCaT, 10 μg/ml sAgrin 18 h) is given as “not restored by sAgrin treatment”. The “migratory rates with increasing concentrations of sAgrin” value in data set [1] (HaCaT/mouse keratinocytes) is given as “accelerated migratory rates”. In data set [1] (human and mouse keratinocytes, 10 μg/ml sAgrin 18 h), the “migration of MMP12 depleted keratinocytes” value is recorded as “failed to stimulate migration”. The “K17 expressing leader keratinocyte migration in vitro” value in data set [1] (sAgrin 10 μg/ml, 4 h) is “enhanced the K17 expressing leader keratinocyte migration”. The “MMP12 gelatin and casein degradation catalytic activity” value in the data set with MMP12 is given as “restored by sAgrin supplementation in a dose-dependent pattern”.
